Biological target: the molecule itself
Experiment: native gel or EMSA; 8% native PAGE; equal amounts (2.5 μg) of FLF and CHF mixed and incubated for 1 h at 4 °C; lanes CHF, FLF, FLF + CHF

B1: C-terminal half of human fascin 1 (CHF) (domain or fragment)
chain: not shown
notes: human fascin 1, residues 260-493 (beta3 and beta4-trefoil domains); also called N-terminal domain deletion (beta-trefoil 1 and 2); C-domain; not shown: His tag (from the vector pFastBacHT)
  stoichiometry N: 2

Source: paper PMC9224989, “Structural Analysis of Human Fascin-1: Essential Protein for Actin Filaments Bundling” (Life, 2022)
